Source: patent US20110117206A1, “PHOSPHOPEPTIDES AND USE OF THE SAME” (PLANT BIOSCIENCE LIMITED, priority 2008, published 2011)

What was measured:
[1] = Partition of salts by ultrafiltration and ion equilibria model of nanocluster solutions; assay type: physicochemical; conditions: nanocluster solution at pH 7.0
Method: Nanocluster solutions of the Ca-free OPNmix in the Mg-free Buffer A were prepared by the urea/urease method with a pH between 5.0 and 7.5. They were allowed to equilibrate before ultrafiltration through Vivaspin 0.5 ml concentrators (Product VS0101 with a molecular weight cut off of 10,000 Da, Vivascience AG, Germany) using a centripetal field of 5000×g for 15 min. […] The ion activity product in the ultrafiltrates were calculated at each pH for a range of y values in order to find the value that was independent of pH.
In addition to the work with the OPNmix sample, a single determination was made of the partition of salts in a nanocluster solution at pH 7.0 prepared with the pure OPN 1-149 peptide.

[2] = SAXS and structural model of calcium phosphate nanoclusters; assay type: physicochemical; conditions: from modelling of the structure
Method: For the OPN 1-149 nanocluster, a description of the peptide segment distribution around the core was considered which is more explicit than that provided by the core-shell model. The simplest block copolymer micelle model has been used in which a corona is formed by Gaussian chains attached by one end to a uniform spherical core. The nanoclusters were prepared either on the SAXS station and measured immediately or were prepared 2 days previously to allow the system to come to equilibrium. The sample was then stored at room temperature and remeasured 5 months later during a later allocation of beamtime. […] The intensity averaged diffusion coefficient, D, was determined with a Malvern Zetasizer Nano instrument.
The results of the SAXS measurements on nanocluster sub-samples measured as a function of time after the addition of the urease are summarised in FIGS. 6a and 6b. […] According to the calculated degree of reaction of the phosphate centres and to the analysis of the correlation function given by the dynamic light scattering studies, the equilibrium state has a significant excess of free peptide, the scattering from which, although negligible at low q, has to be taken account of in modelling the SAXS at higher q. […]

## OPN 1-149: N-terminal osteopontin phosphopeptide fragment from bovine milk, probably formed by plasmin; gel filtration fraction F3a
[1]
  ultrafiltrate concentration of Ca, experimental: 1.4 mM
  ultrafiltrate concentration of Ca^2+, experimental: 1.1 mM
  ultrafiltrate concentration of Pi, experimental: 12.1 mM
[2]
  number of peptide chains on a nanocluster: about 2618
